Results on two molecules are retold here after patent US20230203158A1 (FLAGSHIP PIONEERING INNOVATIONS VII, published 2023).

Assay [1] concerns the target IL-10 receptor of HEK-BLUE IL-10 cells (the cells express all the components of the IL-10 signaling pathway). Nature of the assay: cell-based or functional assay.
Assay [2] concerns the target T1, recombinant His-tagged human IL-10Ra (Creative Biomart) (human, UniProt Q13651 22-235).
T1 construct: also called IL-10 receptor alpha; not shown: His tag
T1 sequence (looked up): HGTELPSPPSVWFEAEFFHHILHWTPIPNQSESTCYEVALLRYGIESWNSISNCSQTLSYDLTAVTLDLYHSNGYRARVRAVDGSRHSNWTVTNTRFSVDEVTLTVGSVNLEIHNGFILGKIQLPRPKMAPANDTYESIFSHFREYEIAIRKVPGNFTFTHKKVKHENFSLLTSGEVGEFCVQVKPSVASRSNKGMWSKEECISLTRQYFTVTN
In words: ELISA, His-tagged human IL-10Ra coated at 1 µg/mL. The protocol:
To test the binding of the IL-10/anti-DSG1 ANDbodies to IL-10 receptor alpha (IL-10Ra) by ELISA, recombinant His-tagged human IL-10Ra (Creative Biomart) was coated on NUNC-IMMUNO™ MAXISORP™ ELISA plates at 1 μg/mL concentration overnight. The next day, coated antigen was removed and the wells were blocked with 1% IgG-free BSA followed by incubation with 11 three-fold serially diluted anti-IL-10/anti-DSG1 ANDbodies (as provided above) with a starting concentration of 30 μg/mL. Bound antibody was detected with peroxidase-conjugated anti-human IgG antibodies with TMB and acid stop reagents.

The target of assay [3] is T2, Murine DSG1 (NCBI accession NP_034209.2) with a c-Myc epitope tag at the C terminus, transiently expressed in … (mouse, UniProt Q61495 50-1057).
T2 construct: whole, on cells; also called mouse DSG1; murine desmoglein-1
T2 sequence (looked up): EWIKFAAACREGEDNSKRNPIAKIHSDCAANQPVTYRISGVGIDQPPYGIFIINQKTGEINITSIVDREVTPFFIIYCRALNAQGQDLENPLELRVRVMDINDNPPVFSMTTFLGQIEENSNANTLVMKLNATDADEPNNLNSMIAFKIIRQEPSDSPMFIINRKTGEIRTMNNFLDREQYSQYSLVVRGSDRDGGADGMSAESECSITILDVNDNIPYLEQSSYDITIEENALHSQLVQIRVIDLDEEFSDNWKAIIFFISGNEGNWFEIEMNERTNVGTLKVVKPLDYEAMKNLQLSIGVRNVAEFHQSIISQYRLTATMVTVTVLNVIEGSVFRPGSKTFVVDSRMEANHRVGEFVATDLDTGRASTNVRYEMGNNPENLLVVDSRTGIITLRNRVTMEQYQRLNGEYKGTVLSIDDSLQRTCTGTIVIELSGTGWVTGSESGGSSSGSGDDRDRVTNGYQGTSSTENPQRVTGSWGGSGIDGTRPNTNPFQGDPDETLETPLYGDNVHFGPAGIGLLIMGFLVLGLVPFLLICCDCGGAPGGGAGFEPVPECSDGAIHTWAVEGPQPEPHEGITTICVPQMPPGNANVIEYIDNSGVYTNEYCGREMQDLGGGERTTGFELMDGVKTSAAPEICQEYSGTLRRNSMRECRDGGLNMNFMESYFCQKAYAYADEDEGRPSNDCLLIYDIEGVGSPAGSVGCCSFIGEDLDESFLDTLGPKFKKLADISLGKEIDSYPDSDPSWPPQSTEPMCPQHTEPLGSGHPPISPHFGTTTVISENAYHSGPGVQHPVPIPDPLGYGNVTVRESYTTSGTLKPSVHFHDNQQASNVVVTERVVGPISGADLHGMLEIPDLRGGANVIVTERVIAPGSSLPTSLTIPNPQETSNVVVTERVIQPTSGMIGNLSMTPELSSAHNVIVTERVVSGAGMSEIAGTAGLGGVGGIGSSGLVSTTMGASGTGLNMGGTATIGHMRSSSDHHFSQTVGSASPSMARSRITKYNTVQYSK
Nature of the assay: flow cytometry on RAW 264.7 cells transiently expressing murine DSG1. An excerpt:
Murine DSG1 (NCBI accession NP_034209.2) with a c-Myc epitope tag at the protein C terminus was transiently expressed in RAW 264.7 cells using LIPOFECTAMINE™ 3000 (ThermoFisher Scientific) according to the manufacturer's protocol.
A general note: In flow cytometry, cells or beads pass a laser one at a time.

B1: IL-10 Fc (Creative Biomart IL10-326H), recombinant human IL-10 fused to a human Fc domain (Fc fusion, UniProt P22301 19-178, looked up)
chain: SPGQGTQSENSCTHFPGNLPNMLRDLRDAFSRVKTFFQMKDQLDNLLLKESLLEDFKGYLGCQALSEMIQFYLEEVMPQAENQDPDIKAHVNSLGENLKTLRLRLRRCHRFLPCENKSKAVEQVKNAFNKLQEKGIYKAMSEFDIFINYIEAYMTMKIRN
notes: also called positive control IL-10 Fc; hIL-10 Fc fusion; not shown: human Fc domain and any linker of the bought product
As for B1, in assay [1], the “EC50 (pM), HEK-BLUE IL-10 signaling assay (SEAP)” value was 50 pM. Further, the binding result in assay [2] is listed as “binds”.

B2: PRO004 (anti-DSG1 antibody 3-07/1e on a human IgG1 LALA-PG backbone, lambda light chain) (antibody, V domains shown)
VH: QVQLVQSGGGLVQPGGSLRVSCAASGFTSNIFWMSWVRQAPGKGLEWVANIDEDGSEKNYVDSVKGRFTISRDNAKNSLYLQMNSLRAEDTAVYYCARESFYYGSGTYFDFWGQGTLVTVSS
VL: ELVVTQPPSVSGAPGQRVTISCTGSSSNIGAGYDVHWYQQLPGTAPKLLIYGNKNRPSGVPDRFSGSKSGTSASLAITGLRAEDEADYYCQSFDSSLGWVFGGGTQLTVLG
notes: human IgG1 with L234A, L235A, P329G
As for B2, the binding result in assay [3] is given as “binds”.
